Assay results: patent US20120171210A1, “METHODS AND COMPOSITIONS FOR INHIBITING C-MET DIMERIZATION AND ACTIVATION” (Genentech, Inc., priority 2003, published 2012)

B1: EC-WT: membrane-bound extracellular Met construct containing the Sema domain, V5/His tagged, expressed by transfection (protein, UniProt P08581 25-932, looked up)
extracellular domain: ECKEALAKSEMNVNMKYQLPNFTAETPIQNVILHEHHIFLGATNYIYVLNEEDLQKVAEYKTGPVLEHPDCFPCQDCSSKANLSGGVWKDNINMALVVDTYYDDQLISCGSVNRGTCQRHVFPHNHTADIQSEVHCIFSPQIEEPSQCPDCVVSALGAKVLSSVKDRFINFFVGNTINSSYFPDHPLHSISVRRLKETKDGFMFLTDQSYIDVLPEFRDSYPIKYVHAFESNNFIYFLTVQRETLDAQTFHTRIIRFCSINSGLHSYMEMPLECILTEKRKKRSTKKEVFNILQAAYVSKPGAQLARQIGASLNDDILFGVFAQSKPDSAEPMDRSAMCAFPIKYVNDFFNKIVNKNNVRCLQHFYGPNHEHCFNRTLLRNSSGCEARRDEYRTEFTTALQRVDLFMGQFSEVLLTSISTFIKGDLTIANLGTSEGRFMQVVVSRSGPSTPHVNFLLDSHPVSPEVIVEHTLNQNGYTLVITGKKITKIPLNGLGCRHFQSCSQCLSAPPFVQCGWCHDKCVRSEECLSGTWTQQICLPAIYKVFPNSAPLEGGTRLTICGWDFGFRRNNKFDLKKTRVLLGNESCTLTLSESTMNTLKCTVGPAMNKHFNMSIIISNGHGTTQYSTFSYVDPVITSISPKYGPMAGGTLLTLTGNYLNSGNSRHISIGGKTCTLKSVSNSILECYTPAQTISTEFAVKLKIDLANRETSIFSYREDPIVYEIHPTKSFISGGSTITGVGKNLNSVSVPRMVINVHEAGRNFTVACQHRSNSEIICCTTPSLQQLNLQLPLKTKAFFMLDGILSKYFDLIYVHNPVFKPFEKPVMISMGNENVLEIKGNDIDPEAVKGEVLKVGNKSCENIHLHSEAVLCTVPNDLLKLNSELNIEWKQAISSTVLGKVIVQPDQNFT
modifications: extracellular domain V5/His tag, membrane-bound

Experiments:
[1] = biological target: T1, Met extracellular domain deletion mutants (EC-WT, ΔS, ΔP, ΔIPT3, TM) (Homo sapiens, UniProt P08581); assay: Co-immunoprecipitation of HGF / scHGF with V5/His-tagged Met deletion mutants; format: binding; conditions: lysates of transfected 293 cells incubated with 5 μg HGF or scHGF, HGF α chain immunoblot
T1 construct: Sub-domain deletions of the Met extracellular domain were made from the N-terminus and tagged after the TM region with V5/His; expressed in transfected cells; host or cells: 293 cells (lysates)
T1 sequence (P08581 308-959 limits assumed, stated change not applied, one chain of several): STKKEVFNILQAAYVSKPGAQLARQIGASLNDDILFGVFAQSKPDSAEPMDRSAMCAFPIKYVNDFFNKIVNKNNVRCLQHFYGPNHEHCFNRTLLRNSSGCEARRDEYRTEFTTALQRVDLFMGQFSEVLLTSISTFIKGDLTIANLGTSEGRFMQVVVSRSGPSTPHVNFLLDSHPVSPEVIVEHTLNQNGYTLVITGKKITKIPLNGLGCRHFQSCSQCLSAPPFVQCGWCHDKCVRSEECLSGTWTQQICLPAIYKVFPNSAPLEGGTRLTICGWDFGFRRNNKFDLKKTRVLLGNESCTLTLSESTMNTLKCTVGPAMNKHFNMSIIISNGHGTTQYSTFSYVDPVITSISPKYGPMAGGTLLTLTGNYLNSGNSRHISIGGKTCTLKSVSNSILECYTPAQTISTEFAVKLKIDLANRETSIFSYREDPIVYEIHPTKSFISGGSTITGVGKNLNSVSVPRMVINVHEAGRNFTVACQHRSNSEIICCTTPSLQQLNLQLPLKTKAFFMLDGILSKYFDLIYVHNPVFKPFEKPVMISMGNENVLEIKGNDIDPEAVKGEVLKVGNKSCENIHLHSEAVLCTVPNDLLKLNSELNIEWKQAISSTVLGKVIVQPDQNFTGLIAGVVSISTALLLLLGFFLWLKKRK
From the text: Extracellular sub-domain deletions of c-Met were constructed using conventional PCR methods. N-terminal primers containing the start of Sema, PSI, first IPT, or fourth IPT domains flanked by a KpnI site were paired with a C-terminal primer up to Met residue 959 flanked by a StuI site. c-Met was used as template and the PCR fragments for each clone were inserted into pCR-Blunt II-TOPO vector using the Zero Blunt TOPO PCR cloning kit (Invitrogen) according to manufacturer's instructions. The clones were confirmed by DNA sequencing. The constructs were then subcloned into pcDNA3.1 V5/His vector (Invitrogen) via KpnI and EcoRV to add a tag at the C-terminus. The signal peptide of Met was added via the HindIII and KpnI sites at the N-terminus of each clone. Each clone was digested with HindIII and EcoRV and subcloned into pRK5TKneo vector via HindIII and PmeI. For EC-WT Flag and EC-WT V5/His clones, an N-terminal primer containing a HindIII site was paired with a C-terminal primer up to Met residue 595 flanked by a StuI site. EC-WT V5/His was subcloned via HindIII/StuI into the HindIII/EcoRV sites of pcDNA3.1 V5/His, and then subcloned into pRK5TKneo as described above. For EC-WT Flag, the PCR fragment was ligated to pCR-Blunt II-TOPO vector. […]
Cell lines were obtained from American Type Culture Collection (ATCC). […] Proteins were detected by enhanced chemiluminescence (ECL-Plus, Amersham). […]

[2] = test system: recombinant EC-Met and Sema domain proteins; assay: Coimmunoprecipitation with recombinant EC-Met and Sema domain proteins; format: binding; conditions: data not shown
[3] = test system: H441 cells; assay: Scrape assay (Met mediated cell motility); format: cell-based, Human; conditions: H441, 100 ng/ml HGF, serum-free
Description: H441 cells were seeded at a density of 4.5×10^4 cells/well in a 96-well plate with 10% FBS in 50:50 DMEM/F12. The next day, a single scrape was made in the confluent monolayer in each well as described previously (Lorenzato et al., 2002). The cells were then incubated with media containing 0.5% BSA and treated with mock, 10 μg/ml 5D5, 10 μg/ml Sema, or 100 ng/ml HGF. The scrape was monitored and photographed daily. Representative results are shown for Day 2.
H441 cells were used in a scrape assay as a measure of Met mediated cell motility (Lorenzato et al., 2002). H441 cells grown to high density were scraped in each well on day 0 and maintained in serum-free media containing 0.5% BSA for the duration of the experiment (FIG. 6). Cells were either treated with 10 μg/ml rSema or 5D5 or 100 ng/ml HGF as a positive control or mock treated. […] These observations were consistent in four separate experiments.
To examine the effect of rSema on cell motility in the presence of ligand, cells were treated with 0, 0.1, 0.5, or 5 μg/ml rSema plus 20 ng/ml HGF. Cells treated with HGF alone closed the gap completely by Day 1.

[4] = biological target: T2, Met (Homo sapiens, UniProt P08581); conditions: Lokker et al., 1992; cited from earlier work
Target sequence in this assay (P08581 25-1390): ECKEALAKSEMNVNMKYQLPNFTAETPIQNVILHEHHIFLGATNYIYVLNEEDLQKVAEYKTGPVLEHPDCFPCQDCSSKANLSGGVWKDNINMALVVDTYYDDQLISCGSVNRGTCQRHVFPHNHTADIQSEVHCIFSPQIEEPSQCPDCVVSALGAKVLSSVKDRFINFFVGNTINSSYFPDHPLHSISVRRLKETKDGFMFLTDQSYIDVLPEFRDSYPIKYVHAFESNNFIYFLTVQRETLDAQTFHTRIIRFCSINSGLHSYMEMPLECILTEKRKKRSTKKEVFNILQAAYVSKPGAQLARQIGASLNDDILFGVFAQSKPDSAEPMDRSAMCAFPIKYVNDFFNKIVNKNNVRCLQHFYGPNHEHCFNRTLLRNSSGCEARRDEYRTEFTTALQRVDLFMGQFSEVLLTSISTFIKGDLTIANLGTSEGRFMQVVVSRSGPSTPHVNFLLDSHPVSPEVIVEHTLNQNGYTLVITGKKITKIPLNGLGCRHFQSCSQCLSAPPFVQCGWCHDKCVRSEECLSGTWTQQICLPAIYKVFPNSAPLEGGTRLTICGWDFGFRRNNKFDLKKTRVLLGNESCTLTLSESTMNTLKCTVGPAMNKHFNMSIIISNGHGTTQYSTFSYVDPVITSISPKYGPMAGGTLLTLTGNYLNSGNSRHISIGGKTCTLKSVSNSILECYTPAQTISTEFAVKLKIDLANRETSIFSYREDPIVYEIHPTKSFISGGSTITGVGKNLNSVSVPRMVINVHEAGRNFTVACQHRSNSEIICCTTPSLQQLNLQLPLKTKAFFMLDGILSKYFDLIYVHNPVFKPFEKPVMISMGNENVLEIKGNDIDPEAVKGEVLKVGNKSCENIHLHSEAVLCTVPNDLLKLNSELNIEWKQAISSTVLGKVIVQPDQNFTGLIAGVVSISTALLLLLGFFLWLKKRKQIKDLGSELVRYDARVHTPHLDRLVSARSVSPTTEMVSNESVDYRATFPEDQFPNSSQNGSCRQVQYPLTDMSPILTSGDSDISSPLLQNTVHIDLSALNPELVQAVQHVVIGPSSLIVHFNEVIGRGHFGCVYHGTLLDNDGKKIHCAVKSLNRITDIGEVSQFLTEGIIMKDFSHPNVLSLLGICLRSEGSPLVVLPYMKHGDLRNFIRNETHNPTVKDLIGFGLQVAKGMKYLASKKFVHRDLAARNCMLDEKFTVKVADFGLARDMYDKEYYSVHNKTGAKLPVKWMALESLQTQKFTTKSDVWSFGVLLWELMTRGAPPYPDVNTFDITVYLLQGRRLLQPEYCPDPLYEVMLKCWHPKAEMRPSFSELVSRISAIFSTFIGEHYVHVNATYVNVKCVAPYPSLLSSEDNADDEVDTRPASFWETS

[5] = biological target: T2, Met; assay: Met tyrosine phosphorylation in A549 cells (immunoprecipitation / phosphotyrosine immunoblot); format: cell-based; parameters: endogenous in cells; host or cells: A549 (lung carcinoma); conditions: A549 cells transfected with Met deletion mutants, vs mock
Description: (§1) Cell lines were obtained from American Type Culture Collection (ATCC). 293 cells were maintained in DMEM supplemented with 10% FBS (Sigma), penicillin/streptomycin (GIBCO), and glutamine A549, H441, and MDA-MB-435 cells were maintained in 50:50 DMEM/F12 (Cellgro) supplemented with 10% FBS, penicillin/streptomycin, and glutamine Cells were transfected with 1-12 μg of the indicated constructs using Lipofectamine 2000 (Invitrogen) according to manufacturer's instructions. Twenty-four hrs later cells were harvested with 1% NP40 lysis buffer containing Complete protease inhibitor cocktail tablet and phosphatase inhibitor cocktail 2 (Roche and Sigma, respectively). For Met tyrosine phosphorylation and MAPK phosphorylation studies, cells were serum-starved for 2 hr with 0.5% BSA. Cells treated with 10 μg/ml anti-Met 5D5-Fab or rSema were incubated for an additional 1 hr prior to lysis. Cell debris was centrifuged and the supernatant was precleared with Protein A Sepharose (Sigma) or Protein G-Plus agarose beads (Santa Cruz) for 1 hr. 500 μg of lysates was then immunoprecipitated with 10 μg 5D5 antibody (Genentech) or 35 ul of Met (C-28) agarose conjugate (Santa Cruz) overnight at 4° C. with rotation. For HGF binding studies, 500 μg of lysates were incubated with 5 μg scHGF or HGF followed by immunoprecipitation with 1 μg of V5 antibody. Protein A or G beads were added for an additional 2 hrs before immunoprecipitates were washed 3 times with 1% NP40 lysis buffer. After addition of 2× sample buffer with 10 mM DTT, the samples were run on 4-12% Tris-glycine gels (Invitrogen). […] Proteins were detected by enhanced chemiluminescence (ECL-Plus, Amersham).
(§2) Human tumor cells were treated with increasing concentrations of rSema and analyzed for Met tyrosine phosphorylation and downstream activation of mitogen activated protein kinase (MAPK) upon HGF stimulation. […]
Target sequence in this assay (P08581 308-1390, one chain of several): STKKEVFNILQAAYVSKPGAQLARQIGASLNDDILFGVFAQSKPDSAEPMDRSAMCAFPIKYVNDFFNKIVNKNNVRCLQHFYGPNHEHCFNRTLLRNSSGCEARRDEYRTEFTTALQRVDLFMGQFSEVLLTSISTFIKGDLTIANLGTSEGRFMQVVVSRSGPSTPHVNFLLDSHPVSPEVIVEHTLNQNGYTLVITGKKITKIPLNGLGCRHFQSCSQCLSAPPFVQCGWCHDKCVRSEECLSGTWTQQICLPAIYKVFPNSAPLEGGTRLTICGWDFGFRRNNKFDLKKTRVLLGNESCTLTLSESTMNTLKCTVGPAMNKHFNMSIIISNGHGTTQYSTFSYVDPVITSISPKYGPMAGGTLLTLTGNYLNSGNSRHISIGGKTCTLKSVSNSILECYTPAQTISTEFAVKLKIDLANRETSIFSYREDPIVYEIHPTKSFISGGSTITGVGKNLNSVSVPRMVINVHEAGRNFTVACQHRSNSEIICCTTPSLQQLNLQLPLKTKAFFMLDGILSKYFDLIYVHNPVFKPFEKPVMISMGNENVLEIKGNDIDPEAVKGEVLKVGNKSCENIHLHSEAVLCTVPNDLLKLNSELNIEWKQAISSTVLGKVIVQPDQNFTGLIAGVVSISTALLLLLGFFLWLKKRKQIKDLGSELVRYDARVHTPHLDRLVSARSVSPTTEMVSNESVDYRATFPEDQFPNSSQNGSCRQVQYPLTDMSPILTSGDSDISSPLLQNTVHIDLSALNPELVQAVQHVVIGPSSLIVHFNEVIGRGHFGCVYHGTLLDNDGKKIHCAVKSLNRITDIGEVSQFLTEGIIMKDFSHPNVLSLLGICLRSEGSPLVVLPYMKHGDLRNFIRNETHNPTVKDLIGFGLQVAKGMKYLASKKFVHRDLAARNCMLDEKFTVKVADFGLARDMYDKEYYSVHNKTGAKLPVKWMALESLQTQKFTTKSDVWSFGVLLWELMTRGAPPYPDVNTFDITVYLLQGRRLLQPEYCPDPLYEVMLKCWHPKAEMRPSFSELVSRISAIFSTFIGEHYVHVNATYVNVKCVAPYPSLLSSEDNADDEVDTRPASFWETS

[6] = test system: MAPK; assay: MAPK phosphorylation in A549 cells (immunoblot); format: cell-based, Human; conditions: A549 cells transfected with Met deletion mutants, vs mock
Description: as §1, §2

Molecule | binding to Met deletion mutants [1] | binding to recombinant EC-Met and Sema domain proteins [2] | gap closure in scrape assay (positive control) [3] | binding and activation of the Met receptor [4] | endogenous Met tyrosine phosphorylation in transfectants [5] | phospho-MAPK in transfectants [6]
HGF: Recombinant HGF, cognate ligand of the Met receptor; positive control | bound EC-WT alone | bound to recombinant EC-Met and Sema domain proteins | closed the gap by Day 1 |  |  | 
scHGF (R494E): Single-chain HGF containing an R494E mutation [reference compound] | only binds EC-WT and not the Sema deleted mutants | bound to recombinant EC-Met and Sema domain proteins |  | binds and inhibits activation of the Met receptor |  | 
B1 |  |  |  |  | attenuation | attenuation
